In patent US8058396B2, “Cystatin C as an antagonist of TGF-β and methods related thereto” (National Jewish Health, priority 2003, dated 2011):

B1: CystC: full-length human Cystatin C (SEQ ID NO:2), C-terminally Myc- and (His)6-tagged, retrovirally expressed and secreted by the cells (protein, listed as Homo sapiens)
chain: MAGPLRAPLLLLAILAVALAVSPAAGSSPGKPPRLVGGPMDASVEEEGVRRALDFAVGEYNKASNDMYHSRALQVVRARKQIVAGVNYFLDVELGRTTCTKTQPNLDNCPFHDQPHLKRKAFCSFQIYAVPWQGTMTLSKSTCQDA
modifications: C-terminal Myc and His6 tags
B2: Δ14CystC: human CystC with deletion of positions 80 to 93 (conserved cysteine proteinase inhibitor motif), retrovirally expressed and secreted (protein)
chain: MAGPLRAPLLLLAILAVALAVSPAAGSSPGKPPRLVGGPMDASVEEEGVRRALDFAVGEYNKASNDMYHSRALQVVRARLGRTTCTKTQPNLDNCPFHDQPHLKRKAFCSFQIYAVPWQGTMTLSKSTCQDA
modifications: left off: small tags and cut ends

Legend:
NRK kidney fibroblasts = assay: Soft agar assay, anchorage-independent growth of NRK cells; type: cell-based, rat; settings: retroviral-mediated expression in NRK cells; TGF-β1 5 ng/ml; 7 d
Experimental: The growth of NRK cells in soft agar was performed according to the procedures described in (Moustakas et al., 1999). Briefly, duplicate cultures of control-, CystC-, or Δ14CystC-expressing NRK cells (10,000 cells/plate) were grown in 0.3% agar on a cushion of 0.6% agar in 35-mm plates. NRK cell growth in the absence or presence of TGF-β1 (5 ng/ml) was allowed to proceed for 7 d, whereupon the number of colonies formed was quantified under a light microscope.
This hypothesis was tested by infecting NRK cells with bicistronic retrovirus encoding either CystC or Δ14CystC to determine their effects on NRK anchorage-independent growth stimulated by TGF-β. Briefly, rat NRK kidney fibroblasts were infected with control (i.e., pMSCV-IRES-GFP), CystC, or Δ14CystC retroviral supernatants, and the resulting infected cells were isolated by GFP fluorescence on a MoFlo cell sorter 48 hours later. Control, CystC-, and Δ14CystC-expressing NRK cells were cultured in soft-agar in the absence or presence of TGF-β1 (5 ng/ml) for 7 d, whereupon NRK colony formation was quantified by light microscopy. In addition, control, CystC-, and Δ14CystC-expressing NRK cells were allowed to invade through Matrigel matrices in the absence or presence of TGF-β1 (5 ng/ml) for 48 hours.

[1] = test system: HT1080 fibrosarcoma cells; assay: HT1080 cell invasion through Matrigel matrices; type: cell-based, human; settings: retroviral expression in HT1080 cells; 48 hr; relative to GFP-expressing cells; p<0.05
Experimental: The effect CystC and D14CystC on the invasion of HT1080 and 3T3-L1 cells was determined as described previously (42). Briefly, upper chambers were coated with 100 μl of diluted Matrigel (1:50 in serum-free media), which was allowed to evaporate to dryness overnight at room temperature. The following morning the Matrigel mixtures were rehydrated and subsequently cultured with control-, CystC-, or D14CystC-expressing HT1080 or 3T3-L1 cells at a density of 100,000 cells/chamber. Cellular invasion was stimulated by addition of 2% serum to the lower chambers. Forty-eight hr later, the cells were washed twice in ice-cold PBS and immediately fixed for 15 min with 95% ethanol. Cells remaining in the upper chambers were removed with a cotton swab, whereas those remaining in the lower chamber were stained with crystal violet. Quantifying invading cells was determined through two independent measures, which yielded identical results: (i) manual counting under a light microscope, and (ii) crystal violet dye extraction by incubation of the membranes in 10% acetic acid, followed by spectrophotometry at 590 nm.
Cathepsin B is a lysosomal cysteine proteinase that functions in intracellular protein catabolism, as well as in bone resorption, hormone activation, and antigen processing (5). During tumorigenesis, cancer cells express a cathepsin B splice variant whose protein product is secreted into the extracellular milieu (5) and localized to the leading edge of invasive tumors (19), thereby promoting cancer cell invasion and metastasis. However, recent evidence has questioned the role of intracellular versus extracellular cathepsin B in promoting cancer cell invasion (20). To distinguish between these two possibilities, human HT1080 fibrosarcoma cells that stably express the murine ecotropic receptor (21) were infected with control (i.e., GFP), CystC, or Δ14CystC retrovirus. Afterward, cells that expressed GFP were isolated by flow cytometry to establish stable polyclonal populations of control-, CystC-, and Δ14CystC-expressing HT1080 cells (data not shown). The inventor chose to study HT1080 cells because they are highly invasive, and because they express large quantities of secreted cathepsin B and comparably little CystC (22). Thus, if extracellular cathepsin B mediates HT1080 cell invasion, it was hypothesized that overexpression of secreted CystC would attenuate their invasion through synthetic basement membranes.
Briefly, GFP-, CystC-, or Δ14CystC-expressing HT0180 cells were allowed to invade through Matrigel-coated membranes for 48 hr. Data shown in FIG. 1A are the mean (±SE) of three (Δ14CystC) and nine (GFP and CystC) independent experiments presented as the percent invasion relative to GFP-expressing HT1080 cells (***, p<0.05; Student's T-Test).

TGF-β signaling = assay: p3TP-luciferase reporter gene assay in 3T3-L1 cells; type: cell-based, murine; settings: expression in 3T3-L1 cells; TGF-β1 0-5 ng/ml; compared to control cells
Experimental: Analysis of luciferase activity driven by the synthetic p3TP reporter ((26); generously provided by Dr. Joan Massague, Sloan Kettering) was performed as described previously (42). Briefly, control, CystC-, or Δ14CystC-expressing 3T3-L1 or HT1080 cells were cultured onto 24-well plates at a density of 45,000 cells/well and allowed to adhere overnight. The cells were transiently transfected the following morning by overnight exposure to LT1 liposomes (Mirus) containing 300 ng/well p3TP-luciferase and 100 ng/well of pCMV-β-gal. Afterward, the cells were washed twice with PBS and stimulated overnight in serum-free media with increasing concentrations of TGF-β1 as indicated. The following morning, luciferase and β-gal activities contained in detergent-solubilized cell extracts were determined.
In some experiments, the effects of recombinant CystC and D14CystC on p3TP-luciferase activity 3T3-L1 cells was determined. […] All subsequent procedures were performed as described above.
The present inventor's findings that TGF-β signaling was inhibited by CystC (FIGS. 1 and 2) independent of its actions on cathepsin B lead them to hypothesize CystC as a general antagonist of TGF-β signaling. To test this hypothesis, changes in p3TP-driven luciferase activity were monitored in control, CystC-, Δ14CystC-expressing cells before and after their stimulation with TGF-β. Briefly, GFP-, CystC-, or Δ14CystC-expressing 3T3-L1 cells were transiently transfected with p3TP-luciferase and pCMV-β-gal, and subsequently stimulated with increasing concentrations of TGF-β1 (0-5 ng/ml) as indicated in FIG. 3A. Afterward, luciferase and β-gal activities contained in detergent-solubilized cell extracts were measured. […] Data are the mean (±SE) luciferase activities of four independent experiments normalized to untreated GFP-expressing cells.
The transfectants were then stimulated with TGF-β1 (5 ng/ml) in the absence or presence of recombinant (10 mg/ml) GST, GST-CystC, or GST-D14CystC as indicated in FIG. 3B. […]

Row | Molecule | morphological transformation (soft agar colony formation) stimulated by TGF-β (NRK kidney fibroblasts) | HT1080 cell invasion through Matrigel matrices [1] | TGF-β-stimulated luciferase activity (p3TP) (TGF-β signaling)
1 | B1 | completely prevented | significantly inhibited | significantly reduced
2 | B2 | completely prevented | failed to affect | significantly reduced
